Measured values as given in the supplement of paper PMC12042874.
± gives the uncertainty stated by the source.

Assay: amyloid nucleation score (Sup35N fusion, yeast selection) (log enrichment); library NNK2; higher = more nucleation; inactive = no reads after selection
How it was run: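 Plasmid inserts were Illumina-sequenced at input and output from psi-negative yeast expressing Sup35N fused to peptides of 20 random codons. The yeast were induced with 100 μM copper sulfate for 24 hours and grown 7 days at 30°C on medium lacking adenine and uracil, and sequences with under 100 input reads were excluded. Nucleation score is the DiMSum log enrichment of output over input reads, centred on the mode score of non-aggregating sequences.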

Row | Substance | amyloid nucleation score
1 | GLPSILVYL | -1.31 ± 0.78
2 | GLQFSATISYERPVWGGVLR | 4.64 ± 0.066
3 | GLRCRYPSRPVTCGLLWGCG | 0.089 ± 0.37
4 | GLREKDN | -0.036 ± 0.32
5 | GLRFC | inactive
6 | GLRFVYLIYTGRS | -0.497 ± 0.64
7 | GLSIGYSKWETALGITLSNP | -0.864 ± 0.78
8 | GLSNFYVFAFYRVFFSLIWA | 3.3 ± 0.067
9 | GLSRVDPWVYQLPSMGSHDS | 0.706 ± 0.52
10 | GLTFRFGTGTSLSRRFDATV | 6.507 ± 0.045
11 | GLTPSISSLRCIGSRFGKFS | 0.86 ± 0.46
12 | GLVVTSNPSDMSVMELCLWF | -0.347 ± 0.3
13 | GMFIMQNGLFYRQSLVAWW | -0.995 ± 0.45
14 | GMGQQEVPNWGMATGCGYEE | 0.081 ± 1.1
15 | GMGVYYVSSFSLRLWNGMTV | 1.65 ± 0.13
16 | GMLKTLSMMHTLIWYFLWDT | -0.62 ± 0.79
17 | GMNLNLPTQTHTSVRHNRG | 2.75 ± 0.14
18 | GMNWGWRFVNIFY | 5.848 ± 0.031
19 | GMSERRWSCQLVGAVHDMAA | 1.17 ± 0.14
20 | GNADRF | -1.12 ± 0.63
21 | GNAQGSTFYVVPFIQYRVFM | 6.744 ± 0.035
22 | GNCLEYIVRNTIANKRSRML | -0.114 ± 1
23 | GNFWAFISRRQSRGFLDSAL | -0.412 ± 1.1
24 | GNLSVTAILWLMRYECLNLS | -0.431 ± 0.64
25 | GNLWGYECVYINKQICGSSR | 3.49 ± 0.05

Row | Substance | amyloid nucleation score
26 | GNRIPVTRGLVKDRSKLVGV | 0.007 ± 1.1
27 | GNSGYPTV | 1.02 ± 0.24
28 | GPEWSSLGSKVRLHWINSM | 0.626 ± 0.8
29 | GPSMCFGEFKVYAEVSWSQA | 0.095 ± 0.34
30 | GPTSVRISPPGVCVLCPPSP | 0.133 ± 0.31
31 | GQACRMYTVSVFVILNLGYQ | 2.53 ± 0.076
32 | GQNLDRSVKGWCTASHTGSF | 0.554 ± 0.54
33 | GRENWELHIRYVR | 4.06 ± 0.063
34 | GRFLLSLATVSGLCTSRLEI | -0.169 ± 0.39
35 | GRIVRSVLSSIVCILMSYWM | 0.821 ± 0.31
36 | GRLNPPLLLRIRSVSYAIPV | 0.783 ± 0.58
37 | GRLSWFS | -0.624 ± 0.49
38 | GRRHVNFCSRTDYRAGPHRY | 0.112 ± 1.1
39 | GRTGFFYLGAKYVSHEGAGK | inactive
40 | GRVVSSFSLKSDNFMMYFRI | -1.18 ± 1.1
41 | GRVWVW | 0.718 ± 0.57
42 | GRWLSFKFSDDRQRVRYRVH | -0.158 ± 0.63
43 | GSASSCGCMMWQCKAICPNS | -0.4 ± 0.63
44 | GSCNVMGRCRIFGLGFWGIV | inactive
45 | GSCPRSDAKSAADCIQV | -0.177 ± 0.79
46 | GSGNT | 0.444 ± 0.56
47 | GSKRCSFRGLCIIYSVSMCS | 6.996 ± 0.044
48 | GSLKEAAGEYMVCRVRLSVG | 0.26 ± 0.46
49 | GSLTKSLSKTTQLR | inactive
50 | GSPNLVSV | 0.401 ± 0.56

Row | Substance | amyloid nucleation score
51 | GSRAFALSTCCFMKYGSGMG | 8.075 ± 0.078
52 | GSSNGRALLYCITLKIMGIV | 0.769 ± 0.4
53 | GSSWLRPALLVNAMIDWSRV | 0.934 ± 0.36
54 | GSWDFSGAIMGLSYSKTVYI | -1.18 ± 1.1
55 | GSYSNAIFIHKLKNKHCFQS | inactive
56 | GTLELMHETWVPSLYPVRMQ | 0.571 ± 0.4
57 | GTLPYDNRTTYAFYLRVCSL | inactive
58 | GTSLYGFSPTAHVRVSHRGE | 0.957 ± 0.47
59 | GTTMTPFPRKCFRSVILFVG | 1.1 ± 0.3
60 | GTYAKSMLSSKVVAG | 1.48 ± 0.18
61 | GTYRNIRVWCRFRWVFENGC | 0.11 ± 0.74
62 | GVARESRAGS | 4.96 ± 0.066
63 | GVAYRWPFGQK | 0.155 ± 1.1
64 | GVCNYPPCPGMMKGKTSLGN | 1.32 ± 0.26
65 | GVCSSNWVYVLLDVDDVISR | -0.564 ± 0.39
66 | GVHTLWNRMKWPIENRVYGS | 1.59 ± 0.3
67 | GVIKWKRQETLNHSWGSESE | 5.24 ± 0.072
68 | GVLFAELLIFVVKSSVVV | 2.01 ± 0.23
69 | GVLGLAFDC | 0.662 ± 0.81
70 | GVLKVLLLAPISFTVVCHSS | 3.65 ± 0.055
71 | GVLMCVAVYRFVCMKRSGML | 0.039 ± 0.19
72 | GVSHMALSSARSFMITDLRS | 3.44 ± 0.14
73 | GVTPG | 0.752 ± 0.16
74 | GVVTFV | 0.157 ± 0.76
75 | GVVTSSSRYLY | 0.072 ± 1.1

Row | Substance | amyloid nucleation score
76 | GVYIRVVSHEWVLFW | inactive
77 | GWNGNLSGTAHLGSSIVSSG | -0.649 ± 0.79
78 | GWSSSHVWVGLNS | 2.44 ± 0.21
79 | GYASTSKAKISAIRAIRP | 0.339 ± 0.31
80 | GYAWPRGTSGVA | 0.353 ± 0.4
81 | GYCLMTFLISTCYG | 5.166 ± 0.031
82 | GYCQVKSGCCSGEECCFWMI | 3.68 ± 0.099
83 | GYDFT | inactive
84 | GYGWKLQMTGGESCVGSHLR | 0.388 ± 0.66
85 | GYNKLSLSL | -0.863 ± 0.64
86 | GYNQEYRLSTMKAMLGRLLV | inactive
87 | GYRSHSDNNICNVSGSHTYI | 3.96 ± 0.065
88 | GYRSIFLLFFPADHPLHTIY | -0.064 ± 1.1
89 | GYSFRYTFCSHSGDVAVVSK | -0.739 ± 1
90 | GYVFYNFFYSAQSRLSSLSN | 0.52 ± 0.15
91 | GYWTGELH | inactive
92 | HACGIVHRPLLRD | -0.191 ± 0.33
93 | HASVHL | 0.497 ± 0.34
94 | HATVHSSRCHSYHPGL | 6.707 ± 0.054
95 | HCNCHRIVYLECVLPYIHCI | -0.919 ± 0.55
96 | HCYSPSKIRVNAIFLHIFL | inactive
97 | HDPRIYW | 0.441 ± 0.27
98 | HDYVRLPEWFLSMGDHMYMC | -0.356 ± 1.1
99 | HEESDGPNERTILVCSICVI | 0.487 ± 0.28
100 | HEKGIKVVQGGQVYGITVEV | 0.093 ± 0.39

Row | Substance | amyloid nucleation score
101 | HEMVTRQRLVTSRQYLSLGV | 1.11 ± 0.29
102 | HEPNSYHPRVGLIQELWHCG | 0.473 ± 0.45
103 | HESRGCSHKTNSMCGHLILL | -0.309 ± 0.45
104 | HEVVKFK | 0.016 ± 1.1
105 | HEYLRGRGTFGNIQDYNKLM | -0.447 ± 1.1
106 | HEYQFSYDFKFLFGSQIMYM | inactive
107 | HFCYKMRLKDDCVCFKGYTI | 4.03 ± 0.058
108 | HFCYSNNRWVSGAFYVSRPT | 1.78 ± 0.2
109 | HFKFYRNNYMTVIVHKACDV | 8.665 ± 0.083
110 | HFTSRLKIRSTIVAVVNVSS | 3.16 ± 0.078
111 | HFTTLGILLRCRGLSVLPKV | -0.329 ± 0.39
112 | HFVRVSFGCCLVTLSMRVDR | 0.669 ± 0.26
113 | HGAVGCAS | -0.002 ± 1
114 | HGRKNFSVGVVVVLWLRLFV | 5.63 ± 0.081
115 | HHSWRYRLYVSIDSSFCLGA | inactive
116 | HIEFDRWAPHLVDLPTGPMK | inactive
117 | HIGHSWIGSALDTLAYEGYY | -0.49 ± 0.76
118 | HIKLYSDYTCKLMPSLTWQR | 4.8 ± 0.08
119 | HIPRCINLVVRCTVKLVDGS | 2.35 ± 0.14
120 | HIVAGCIVQLANILWDRAEG | 0.57 ± 0.38
121 | HIVEIGALYRAIYLKVKWRQ | 2.62 ± 0.21
122 | HKCRWSGPAVGSQGKDVIIL | 1.12 ± 0.44
123 | HKDSKTGSIYHQWMDQREIE | -1.1 ± 0.48
124 | HKHSISKCAKEALAALLLFV | -0.319 ± 0.76
125 | HKKAFVCPRCMVPCRRLWHG | 0.232 ± 0.25

Row | Substance | amyloid nucleation score
126 | HLENGINIWDKLY | -0.363 ± 1.1
127 | HLGRYAVKMCYWKGLFFYNN | 0.29 ± 0.74
128 | HLMLRKGLVKCWVQTVVGSG | 1.48 ± 0.33
129 | HLTSS | 0.772 ± 0.44
130 | HLVGEKSSKRDSGGRGPRRY | -0.32 ± 0.61
131 | HLYLPMYGIMFS | 1.27 ± 0.15
132 | HMCTFSIICKKVLMSFMGIL | 1.93 ± 0.14
133 | HNIIWFSLTWLRYMSVVVIC | inactive
134 | HNYSD | 0.187 ± 0.56
135 | HPFSSRSS | -0.018 ± 1.1
136 | HPSFLRIWDYIRSKFNSVHR | inactive
137 | HPWSFLKVGVQFVGFWDSPY | 0.366 ± 0.19
138 | HQVSGSDWPRSDYLRCLTIA | 1.82 ± 0.19
139 | HRCSKPSWKVCIEWCRSRCV | 0.614 ± 0.45
140 | HREWG | 0.668 ± 0.46
141 | HRFSMQALYRNIQEWSCEAW | 2.07 ± 0.12
142 | HRGNTCTGSRCRLADRRHPS | 1.79 ± 0.18
143 | HRTMHRTHSICGGVDQRELL | -0.538 ± 0.48
144 | HRVCLNTIGY | -1.02 ± 0.32
145 | HRVRIINCKKIWGNALWVRL | 1.15 ± 0.14
146 | HRVWTVIMWGS | 0.699 ± 0.44
147 | HRYLPSG | 0.224 ± 0.8
148 | HSAYSWFLKSSNRRSWANSS | -0.666 ± 0.79
149 | HSCRTYI | inactive
150 | HSCSYRLLSMYTRLRTLVSG | -0.828 ± 0.64

Row | Substance | amyloid nucleation score
151 | HSFEFWIDTRWLVFINPYSR | -0.846 ± 0.44
152 | HSFLSGIKWLSSDLGDSVGY | -1.29 ± 0.62
153 | HSFMSRVARVSWMEMVVTLA | 1.26 ± 0.41
154 | HSGCCRYLLNNWLYSYMQFY | 4.08 ± 0.05
155 | HSSISVCVYSRLPCH | -0.447 ± 0.36
156 | HSVLMAGSPTILRHRYRFKG | -0.723 ± 0.44
157 | HTGLSVGKFKVRHGNVHRVF | -0.181 ± 0.34
158 | HTLGIWLKREPWGMMYGLRG | 0.165 ± 1
159 | HTTASATPYFAGQV | 0.042 ± 0.38
160 | HTWHLDRSLNLSMSLEPMLL | 0.233 ± 0.4
161 | HVEWMTCWLVSNNTDPRWDR | 0.911 ± 0.27
162 | HVHCEIGFVRLSTRVGRWFG | 6.64 ± 0.079
163 | HVHKL | -0.403 ± 0.39
164 | HVHVNLYRTSGDIEHMSVQL | 8.391 ± 0.046
165 | HVRYYGTHSTVNDNYIRNVR | 0.425 ± 0.31
166 | HVTRQLCPLMSFILGR | 0.565 ± 0.49
167 | HVYAVRSLLYGGWGRH | 4.46 ± 0.051
168 | HVYVGL | -0.578 ± 1.1
169 | HWCLLNSPNYIEMSLNDFLY | 3.62 ± 0.053
